Molecular target: T1, GST-ZmRR8 DNA-binding domain (Zea mays, UniProt Q9AV93 191-262)
T1 sequence: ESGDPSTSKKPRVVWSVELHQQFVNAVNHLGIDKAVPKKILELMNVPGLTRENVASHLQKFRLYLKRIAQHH
Assay: EMSA; 1x LightShift Binding Buffer, 50 ng/uL poly(dI/dC), 2.5% glycerol, room temperature 20 min, 6% DNA retardation gel; pH and salt not given
Conditions: protein: recombinant; tags: GST (pET-60-DEST)

B1: m119 bp (three AGATAT to TTTTTT) (dsDNA)
DNA 1: TAATTTTTTCGTCGTATCCCATGATCCTTCGTGTGTCAACTTCACTTGTCTCTCTCCAAATTTTTTCGTCGTATCCCATGATCCTTCCTCCCCTCCAAATTTTTTCGTCGTATCACAGTA
DNA 2: TACTGTGATACGACGAAAAAATTTGGAGGGGAGGAAGGATCATGGGATACGACGAAAAAATTTGGAGAGAGACAAGTGAAGTTGACACACGAAGGATCATGGGATACGACGAAAAAATTA
B1: no binding.
